For the test, the target named is Sar1p (yeast, UniProt P20606 1-190). As to the kind of experiment: pull-down.
Chain of Sar1p (P20606 whole entry): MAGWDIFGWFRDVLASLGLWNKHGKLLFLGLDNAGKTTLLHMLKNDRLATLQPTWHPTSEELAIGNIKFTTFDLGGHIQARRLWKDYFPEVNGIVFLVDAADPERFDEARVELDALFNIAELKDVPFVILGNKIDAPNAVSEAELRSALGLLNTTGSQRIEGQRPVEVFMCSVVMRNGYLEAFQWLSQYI

As for MRRRSRC [GalNAcT2 cytoplasmic domain peptide (wild type, MRRRSRC)], the binding result is reported as “binds”.

(Values after publication PMC2064162 (The Journal of Cell Biology, 2006).)
